These results are taken from patent US20030186844A1 (MERCK, published 2003).

Test [1] has as its target T1, human GHS receptor 1a (human, UniProt Q92847 1-366).
T1 construct: whole, on cells; functional assay used whole 293AEQ17/GHSR1a cells; also called hGHSR1a; human GHSR1a
Description: competitive filter binding vs [35S]-MK-677, membranes of HEK 293-AEQ17 cells transfected with human GHS receptor. As for the experimental part: (§1) Binding of [³⁵S]-MK-677 to crude membranes prepared from HEK 293-aequorin stable cell lines was performed as described in Chen et al., Bioorg. Med. Chem. Lett. 1996, 6, 2163-2169, and Howard et al., Science 1996, 273, 974-977. Prior to the binding assay, the HEK 293-AEQ17 cells (8×10⁵ cells plated 18 hours before transfection in a T75 flask) were transfected with 22 μg of human GHS receptor plasmid using 264 μg lipofectamine.

The target in test [2] is T1, human GHS receptor 1a. As to the kind of experiment: cell-based or functional assay.
Test [3] addresses T1, human GHS receptor 1a. Description: cell-based or functional assay. The source holds these as a separate data set.
The target in test [4] is T1, human GHS receptor 1a. Description: competitive filter binding vs [35S]-MK-677, membranes of HEK 293-AEQ17 cells transfected with human GHS receptor. As for the experimental part: as §1
This is another data set of the same source.

Like-named read-outs stand apart in the source and are kept apart here. Where no end group is shown, it is not given here. [ ]: non-standard residue; d: D form. The star is where a group is joined. Octanoyl = CCCCCCCC(=O)*; Dap = NC[C@H](N)C(=O)O

T1 sequence (Q92847 whole entry): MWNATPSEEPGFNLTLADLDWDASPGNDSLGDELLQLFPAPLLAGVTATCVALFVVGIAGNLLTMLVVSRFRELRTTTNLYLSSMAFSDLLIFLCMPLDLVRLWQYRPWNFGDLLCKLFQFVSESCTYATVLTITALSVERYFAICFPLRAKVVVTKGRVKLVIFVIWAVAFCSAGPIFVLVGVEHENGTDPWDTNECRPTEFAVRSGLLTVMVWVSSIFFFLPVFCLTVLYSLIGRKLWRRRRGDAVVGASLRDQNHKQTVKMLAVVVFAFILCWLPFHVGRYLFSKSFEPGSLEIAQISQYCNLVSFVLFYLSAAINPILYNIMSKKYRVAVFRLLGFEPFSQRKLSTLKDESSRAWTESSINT

B1: compound 18 (peptide)
peptide: GSS(Octanoyl)FLSPEHQRVQQRKESKKPPA-NH2
modifications: N-terminus assumed
SMILES: CCCCCCCC(=O)OC[C@H](NC(=O)[C@H](CO)NC(=O)CN)C(=O)N[C@@H](Cc1ccccc1)C(=O)N[C@@H](CC(C)C)C(=O)N[C@@H](CO)C(=O)N1CCC[C@H]1C(=O)N[C@@H](CCC(=O)O)C(=O)N[C@@H](Cc1c[nH]cn1)C(=O)N[C@@H](CCC(N)=O)C(=O)N[C@@H](CCCNC(=N)N)C(=O)N[C@H](C(=O)N[C@@H](CCC(N)=O)C(=O)N[C@@H](CCC(N)=O)C(=O)N[C@@H](CCCNC(=N)N)C(=O)N[C@@H](CCCCN)C(=O)N[C@@H](CCC(=O)O)C(=O)N[C@@H](CO)C(=O)N[C@@H](CCCCN)C(=O)N[C@@H](CCCCN)C(=O)N1CCC[C@H]1C(=O)N1CCC[C@H]1C(=O)N[C@@H](C)C(N)=O)C(C)C
For the molecule B1, the IC50 with human GHS receptor 1a [1] was 0.16 nM. In the test with human GHS receptor 1a [2], the “% activation at 10 µM relative to ghrelin” value was found to be 100% and the “Functional Assay EC50 (aequorin bioluminescence)” value (“Functional Assay EC50” below) is 15 nM.

B2: compound 21 (peptide)
peptide: GSS(Octanoyl)FL-NH2
modifications: N-terminus assumed
SMILES: CCCCCCCC(=O)OC[C@H](NC(=O)[C@H](CO)NC(=O)CN)C(=O)N[C@@H](Cc1ccccc1)C(=O)N[C@@H](CC(C)C)C(N)=O
The molecule B2 displayed an IC50 with human GHS receptor 1a [1] of 55 nM. In the test with human GHS receptor 1a [2], the “% activation at 10 µM relative to ghrelin” value was 96% and the “Functional Assay EC50” value turned out to be 11.5 nM.

B3: compound 12 (peptide)
peptide: GSXFLSPEHQRVQQRKESKKPPAKLQPR
modifications: X^b at position 3: 2,3-di-amino-propionic acid in place of Ser3, its beta-amino group acylated with n-octanoic acid
Turning to B3, the “Functional Assay EC50” value in the test with human GHS receptor 1a [3] was determined as 31 nM. The half-maximal inhibitory concentration (IC50) with human GHS receptor 1a [4] was determined as 0.42 nM.
In the case of GSS(Octanoyl)FLSPEHQRVQQ [compound 13], the half-inhibitory concentration (IC50) with human GHS receptor 1a [1] and with human GHS receptor 1a [4] was 9.6 nM throughout. Besides, the “% activation at 10 µM relative to ghrelin” value in the test with human GHS receptor 1a [3] and with human GHS receptor 1a [2] was 97% throughout. In addition, the “Functional Assay EC50” value with human GHS receptor 1a [3] and in the test with human GHS receptor 1a [2] was 17 nM in each case.

B4: compound 19 (peptide)
peptide: GSS(Octanoyl)FLSPEHQRVQQRKES-NH2
modifications: N-terminus assumed
SMILES: CCCCCCCC(=O)OC[C@H](NC(=O)[C@H](CO)NC(=O)CN)C(=O)N[C@@H](Cc1ccccc1)C(=O)N[C@@H](CC(C)C)C(=O)N[C@@H](CO)C(=O)N1CCC[C@H]1C(=O)N[C@@H](CCC(=O)O)C(=O)N[C@@H](Cc1c[nH]cn1)C(=O)N[C@@H](CCC(N)=O)C(=O)N[C@@H](CCCNC(=N)N)C(=O)N[C@H](C(=O)N[C@@H](CCC(N)=O)C(=O)N[C@@H](CCC(N)=O)C(=O)N[C@@H](CCCNC(=N)N)C(=O)N[C@@H](CCCCN)C(=O)N[C@@H](CCC(=O)O)C(=O)N[C@@H](CO)C(N)=O)C(C)C
Consider B4, for which the IC50 with human GHS receptor 1a [1] amounted to 0.77 nM. In addition, in the test with human GHS receptor 1a [2], the “% activation at 10 µM relative to ghrelin” value came to 92% and the “Functional Assay EC50” value was 22 nM.
As to GS[Dap](Octanoyl)FLSPEHQRVQQ [compound 14], in the test with human GHS receptor 1a [3], the “% activation at 10 µM relative to ghrelin” value was determined as 102% and the “Functional Assay EC50” value worked out at 38 nM. For the same molecule, in the test with human GHS receptor 1a [4], the IC50 came to 8 nM.
